Test results as given in a protein production outcome set (Wang et al. 2014).

Test: label from the status in PepcDB records

Sequence	protein production
MEVDKKDEREAESSEQVVNPWEVSAKDGGKIDYDKLIDKFGCQRLDESLIDRVQRLTSRQPHVFLRRSVFFAHRDFNEILDAYERGDKFYLYTGRGPSSEALHLGHLIPFMFTKYLQEAFKVPLVIQLTDDEKSIWKNLSVEESQRLARENAKDIIACGFDVTKTFIFSDFDYVGGAFYKNMVKVGKCVTLNKAMGIFGFSGEDPIAKLSFPPVQAVPSFPSSFPHLFPGKDNLRCLIPCAIDQDPYFRMTRDVAPRLGYSKPALIESTFFPALQGENGKMSASDPNSAIYVTDSAKDIKNKINRYAFSGGQDSIEKHRELGANLEVDIPVKYLSFFLEDDSELEHIKKEYGEGRMLTGEVKKRLTEVLTEIVERHRRARAAVTDEMVDAFMAVRPLPSMFE	not failed
QQVTEPEETKETLQHLLDDTASGKMVQLTFVGESAEQPLITEMIRNFNVSVNILQGKISQTKDGAYGSLFIHIDGDEEEVQNVIRFINDKQVKAEVITNV	not failed
MANSITADEIREQFSQAMSAMYQQEVPQYGTLLELVADVNLAVLENNPQLHEKMVNADELARLNVERHGAIRVGTAQELATLRRMFAIMGMYPVSYYDLSQAGVPVHSTAFRPIDDASLARNPFRVFTSLLRLELIENEILRQKAAEILRQRDIFTPRCRQLLEEYEQQGGFNETQAQEFVQEALETFRWHQSATVDEETYRALHNEHRLIADVVCFPGCHINHLTPRTLDIDRVQSMMPECGIEPKILIEGPPRREVPILLRQTSFKALEETVLFAGQKQGTHTARFGEIEQRGVALTPKGRQLYDDLLRNAGTGQDNLTHQMHLQETFRTFPDSEFLMRQQGLAWFRYRLTPSGEAHRQAIHPGDDPQPLIERGWVVAQPITYEDFLPVSAAGIFQSNLGNETQTRSHGNASREAFEQALGCPVLDEFQLYQEAEERSKRRCGLLLEHHHHHH	not failed
MTTTKDVPIDLKASGKTAADTSYSFSSDTKSVTVTGTKAALAKLKSLPVNVDVTNVDSTTTKTVDVSTSDEDGISSVSPTSVKVKITVKNDLEHHHHHH	not failed
MTKILYMVVPCYNEELVLDETSERLKAKYEQLISNNIISPKSRVVYVNDGSKDKTWEKIQEKHNENPMFSGINLSRNRGHQNALLAGLMTVRNLADCVISMDADLQDDINAIDEMLEKFENENCDIVYGVRDNRDTDTVFKRRTAGAFYKLMQGLGSQSVPNHADFRLMSRRALDGLAQFPEQNLFLRGMVPLVGYKSDIVYYKRGERFAGESKYPLKKMISFALDGITSTSAAPMRLIFWIGLIWFLLAIVGAIYIIARHFINGSDVAGWASTMLAIIGFGGANLLALGVIGEYIGKIFLEVKQRPRYLIEDFINED	failed
AIAAASLGEFEWCVATNTFRISPRLAKLSGIPEGELDSQGGNALYAYIHPDDREAVRANIDRQLAQSGRFTAEYRRTPLEHGGETWNSVAGVMLMDADGQPSRLIGVVQDITPRKL	failed
MNWPNMPPGDRRWLWIGLTLPLCLLNGWVLLQILDYFQSPLRIFIIANLVAFILGYPVRWLQRYPRLKLPYAVALVLLTTAIILAVIGLLVIPKLVDQIRTVLQLLPHLNALGDRHLESLDNLSNQWEIPTNFRAWGRELSNEFPNQIRSITNQLINLLIWTAGSLVEAGFIFIMTVYLLLRGQTFWDGIFRWLPIDWRHKVRQRLRHSFQNYYIGQATVAALLGVSLIISLSIFQVPLALLFGMFVGFMAFFPFGGGTSIVLISIIASFQSIWLGIKVLAIATVVDQVVENGLAPKLLGRVTGVHPVWILLSLMIGAKVAGLLGILVAIPIASFIRDMLNDFI	failed
MSATAAARKRGKPASGAGAGAGAGKRRRKADSAGDRGKSKGGGKMNEEISSDSESESLAPRKPEEEEEEELEETAQEKKLRLAKLYLEQLRQQEEEKAEARAFEEDQVAGRLKEDVLEQRGRLQKLVAKEIQAPASADIRVLRGHQLSITCLVVTPDDSAIFSAAKDCSIIKWSVESGRKLHVIPRAKKGAEGKPPGHSSHVLCMAISSDGKYLASGDRSKLILIWEAQSCQHLYTFTGHRDAVSGLAFRRGTHQLYSTSHDRSVKVWNVAENSYVETLFGHQDAVAALDALSRECCVTAGGRDGTVRVWKIPEESQLVFYGHQGSIDCIHLINEEHMVSGADDGSVALWGLSKKRPLALQREAHGLRGEPGLEQPFWISSVAALLNTDLVATGSHSSCVRLWQCGEGFRQLDLLCDIPLVGFINSLKFSSSGDFLVAGVGQEHRLGRWWRIKEARNSVCIIPLRRVPVPPAAGS	failed
MDKSIIQLVDELPSDNITVKVLNALDYVAPGQWQNLVGFDNTIRAVTGETDARVIQKIRDRATSLYNDPQQGYQSAVKLYQTIDKADTAMATAALANKVGEKIGFLSFLSNITPKADVTQSIDLVSKIAIEIIVFCKLNGIPQPNPQEFANSLANNYQDASLIRMVALVCLDGILPLGPDFLSKIQGIISGAESNSITQNPVFLAVNSSLPGSNPTDKLGFINQGFNAVQGWMNNLVTKTGITPQSISSHLGNFIQIADDNLDFVAAFLDQTTNYFEHTGIQSVARRLILKAHTLVKEEIKQETTQPIQDSSSAVKSDTSQYAVSKKIEVWDEEEEDWYQATIEKVQDDQFFINYIGYGSSHNEWVGKDDIRATDYASSDANGYAVGKKVKCWSDEEETWYTATIEKIQGNQYFIHYTGYDSSYDEWVNSDDIS	failed
MCRKRYKKQNLGVSKNMLEGHENKVSGVYEKNRSAGYEKEILKPKNVWEEFFADKRSGGHRSSAEEFLAMEAKEKLFHLDGGKILLDFGCGAGELLVYYAQEYEKTIGVDFSPSMLEEASKRIRERNCKNTTLILADDKIVWDKLDSSFDRITAAGVFQYLTYQKIDDFIFNASKHLNEGGKIVLFDMLDPRLYPLWKMGLFSQDKSCRKILSKAVCGVKNSISASLKRRPRDILGYSHYPNKIKKIANKNGFEMICVQSMYYEYKYHAIIFRS	failed
MKNKTIISKQNLVLIVIMVGATLTDQLSKIWITSNLQLGESIEIIPSFFKITYAQNTGAAWSILEGQMTFFYVITLVALILLGWYFYRLKDYQIIQKIGVALMVSGTLGNFIDRLLFQYVRDSLDFHILGYNFPIFNVADVLLICGVLFIIIDEVLKSFGVSYKKM	failed
MANYEFSQVSGDRPGCRLSRKAQIGLGVGLLVLIALVVGIVVILLRPRSLLVWTGEPTTKHFSDIFLGRCLIYTQILRPEMRDQNCQEILSTFKGAFVSKNPCDITREDYAPLVKLVTQTIPCDKTLFWSKSKHLAHQYTWIQGKMFTLEDTLLGYIADDLRWCGDPSTSDMNYVSCPHWSENCPNNPITMFWKVISQKFAEDACGVVQVMLDGSLREPFYKDSTFGSVEVFSLDPNKVHKLQAWVMHDIEGASSNACSSSSLNELKMIVQKRNMIFACVDNYRPARFLQCVKNPEHPSCRLNT	not failed
MKRVLVLGATGRTGNFVIKELSKYKSIQLIAGLRSQKDKERLPKINAAIETVVIDIADVCSLRKALTDSDIVVQAIRLRGDISENALIQLDQRIHQAFNPSRKTHLVTVGGAGALKLEANQRFWENEYFPRQTLPRGIAHARLRDYLEKSFFNHTWTYLIPPPVYVAEGARTGSYNRYSSAQKEDFFLSKSISYADFALAIGNAVMEEWQGVYLIAEKELEHHHHHH	failed
MKKWFPALLFSLCVSGESSAWNNIVFYSLGDVNSYQGGNVVITQRPQFITSWRPGIATVTWNQCNGPEFADGFWAYYREYIAWVVFPKKVMTQNGYPLFIEVHNKGSWSEENTGDNDSYFFLKGYKWDERAFDAGNLCQKPGEITRLTEKFDDIIFKVALPADLPLGDYSVKIPYTSGMQRHFASYLGARFKIPYNVAKTLPRENEMLFLFKNIGGCRPSAQSLEIKHGDLSINSANNHYAAQTLSVSCDVPANIRFMLLRNTTPTYSHGKKFSVGLGHGWDSIVSVNGVDTGETTMRWYKAGTQNLTIGSRLYGESSKIQPGVLSGSATLLMILP	not failed
MSQSNHPGGKDAGSIPRVLISADRSSSGKTTISMGLMAALVSRGYKVQPFKVALDYIDPSYHTEITGRFCRNLDGYLMDEHGILDVYTHACETGGGADIAIIEGVRGLFEGFESLSDVGSTAQIAKILKCPVVFVINARSITRSAAALIGGYKNFDPDVEIAGVILNNIGGRRHAQKAKEAIEHYTGVPVLGIIPRDPSMQISMRHLGLMPALEGRRRFGDGGFENRLHGIEEIINKGIDVDRFLGIAESAKPLTALENSIFSPAVNENSQKPKIGVALDEAFNFYYRDNIDLLEIAGAEIVYFSPVNDPGLPEVDGLYIGGGYPELFAAELEANETMRKSIKEASAAGMPIYAECGGLMYLTEKISTGVPGKGTYHDASMPESTYSMVGALPGHTIMGQTRVVSYNIGTLARDCPIGKKGNSFKGHEFHHSEILEIPDDAEFAIALTRGTGIRGDRDGLIVNNTIGSYAHLHGVAYRELAGSLVEAARKFRDSRVSSLEHHHHHH	not failed
MQKIALCITGASGVIYGIKLLQVLEELDFSVDLVISRNAKVVLKEEHSLTFEEVLKGLKNVRIHEENDFTSPLASGSRLVHYRGVYVVPCSTNTLSCIANGINKNLIHRVGEVALKERVPLVLLVREAPYNEIHLENMLKITRMGGVVVPASPAFYHKPQSIDDMINFVVGKLLDVLRIEHNLYKRWRG	not failed
RFLEDMTIGERREVGTFTFTADAIKTFAAQFDPQPFHLDEEAGKNSLFGGLAASGWHVAAVCMKLMVADAQRESAEAAKRGELVATGGPSPGFRELRWLKPVLAGDTITYYKQVESLRPSDSRPQWGIMQARNTGINQRGEVVFSFLATAFVPRRPNA	failed
MYKEGACLYRNPLRSKSDVKDWRMEGGGQISFDDHSLHLSHVQDEAHFVFWCPETFPDGIIVTWDFSPIEQPGLCMLFFAAAGIRGEDLFDPSLRKRTGTYPEYHSGDINALHLSYFRRKYAEERAFRTCNLRKSRGFHLAAMGADPLPSPDDADSPYRMKLIKDKGYVHFSINGLPILEWMDDGSTYGPVLTKGKIGFRQMAPMKAVYRDFAVHQAVRR	not failed
MAMPEIDALLGLSFCLYFFDNKQHKLPHIHVKYGSYELIIAIETGECLEGYLPNKQRKRAENHILEHREQLMVMWNKAVNGENPGKLGDLCLEHHHHHH	failed
MVKHIWDSERAAQLPKGVEELVYRSNLIGSDRTVCNWGGGNTSMKTTEKDFRGREIEVMWVKGSGSDLATMKAHNFSGLKLDDIRPLIKRDQMPDEEMVDYLSHCMIDSKHPRPSIETLLHAFLPYKHVDHTHPDAIISICCADNGKQIAEDIYGNRFVWVPYVRPGFTLSKMIAEGVANNPHAELVLMEKHGLVTWGETSETCYQKTISIIQEAEQYINDRINQHEVFGGKRYQPLPEDKR	not failed
MTLSRSSADDSTNNANRSYSAVAGTDNKRKRDEDSSDYVGVAESLEMLKKQEIDADHMAASAQQTLISWRSGENSRSLSSSGECSSSNRPESTRLQIFVRMMSGGKTIVIHAEKYDTVEKLHQRIEWKTKIPALEQRVIYKGKQLQRENSLTYYSIEQDASLQLVARMQSTEHPVAWQTIDDIMYTISRMYKGENLQSNINEKIVTFFAMIPVESDESIAKYLNIFSNSSVPAALVMLYASSLERNKSCAKSSVKLFLSNCVALPKNQKNYCLPIVLEFCKLLRKVCPDQKLYVTCRNTLGSMLETFDNPHGVYNDQYETFGVEIFPFFTELTGLLLNELAQNSGPSFCDFQKVSSFWQQLRKVIELKVAFPIPIVLPMQSTALEAEIRHLHRLFGSLLTTMDLCMCRVESSLADKEVGNSETMSSSWSQYLSILKIINSMSNIYQGAKGQLAVMLNKNKVSFSALVVKFAKRGDDHQWIFEYKEATNFEARRHLAMLLFPDVKEDFEEMHEMLIDRSNLLSESFEYIVGASPEALHGGLFMEFKNEEATGPGVLREWFYLVCQEIFNPKNTLFLRSADDFRRFSPNPASKVDPLHPDFFEFTGRVIALALMHKVQVGVLFDRVFFLQLAGLKISLEDIKDTDRIMYNSCKQILEMDPEFFDSNAGLGLTFVLETEELGKRDTIELCPDGKLKAVNSKNRKQYVDLLIERRFATPILEQVKQFSRGFTDMLSHSVPPRSFFKRLYLEDLDGMLRGGENPISIDDWKAHTEYNGFKETDRQIDWFWKILKKMTEEEQRSILFFWTSNKFVPVEGFRGLSSKLYIYRLYEANDRLPLSHTCFYRLCIPRYPTITLMEQRLRLIAQDHVSSSFGKW	failed
